Measured values published in paper PMC1911201 (Molecular Systems Biology, 2007).

What was measured:
Assay in all cases: peptide or protein array
[1] = target: T1, Dis3 (S. cerevisiae, UniProt Q08162 1-1001)
T1 sequence (looked up): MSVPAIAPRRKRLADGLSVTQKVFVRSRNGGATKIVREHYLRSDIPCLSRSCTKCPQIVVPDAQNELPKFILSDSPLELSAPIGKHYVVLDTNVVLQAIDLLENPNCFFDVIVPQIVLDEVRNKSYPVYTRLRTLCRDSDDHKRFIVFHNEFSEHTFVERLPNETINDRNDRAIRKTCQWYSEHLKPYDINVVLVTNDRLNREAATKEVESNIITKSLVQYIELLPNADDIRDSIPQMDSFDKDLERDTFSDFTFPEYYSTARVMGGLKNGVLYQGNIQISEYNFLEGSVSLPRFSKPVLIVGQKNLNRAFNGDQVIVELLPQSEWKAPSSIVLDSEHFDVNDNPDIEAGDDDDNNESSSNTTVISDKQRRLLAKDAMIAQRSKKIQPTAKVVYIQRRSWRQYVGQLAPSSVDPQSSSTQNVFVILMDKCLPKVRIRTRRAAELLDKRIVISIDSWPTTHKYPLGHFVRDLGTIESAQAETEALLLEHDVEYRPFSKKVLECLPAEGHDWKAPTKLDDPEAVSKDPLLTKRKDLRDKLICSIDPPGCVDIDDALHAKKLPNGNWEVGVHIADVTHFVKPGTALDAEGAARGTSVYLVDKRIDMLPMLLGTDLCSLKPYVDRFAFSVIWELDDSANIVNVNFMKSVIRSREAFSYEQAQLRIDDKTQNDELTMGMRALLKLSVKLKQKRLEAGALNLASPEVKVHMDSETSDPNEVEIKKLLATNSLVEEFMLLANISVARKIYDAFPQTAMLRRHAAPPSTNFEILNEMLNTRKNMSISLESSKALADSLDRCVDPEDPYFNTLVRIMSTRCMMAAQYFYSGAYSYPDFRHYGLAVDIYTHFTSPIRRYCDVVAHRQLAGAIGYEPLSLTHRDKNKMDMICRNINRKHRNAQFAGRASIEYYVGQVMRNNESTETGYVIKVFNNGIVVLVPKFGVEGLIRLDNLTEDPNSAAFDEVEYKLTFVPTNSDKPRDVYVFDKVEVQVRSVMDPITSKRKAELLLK

[2] = target: T2, Yjl084c (S. cerevisiae, UniProt P47029 1-1046)
T2 sequence (looked up): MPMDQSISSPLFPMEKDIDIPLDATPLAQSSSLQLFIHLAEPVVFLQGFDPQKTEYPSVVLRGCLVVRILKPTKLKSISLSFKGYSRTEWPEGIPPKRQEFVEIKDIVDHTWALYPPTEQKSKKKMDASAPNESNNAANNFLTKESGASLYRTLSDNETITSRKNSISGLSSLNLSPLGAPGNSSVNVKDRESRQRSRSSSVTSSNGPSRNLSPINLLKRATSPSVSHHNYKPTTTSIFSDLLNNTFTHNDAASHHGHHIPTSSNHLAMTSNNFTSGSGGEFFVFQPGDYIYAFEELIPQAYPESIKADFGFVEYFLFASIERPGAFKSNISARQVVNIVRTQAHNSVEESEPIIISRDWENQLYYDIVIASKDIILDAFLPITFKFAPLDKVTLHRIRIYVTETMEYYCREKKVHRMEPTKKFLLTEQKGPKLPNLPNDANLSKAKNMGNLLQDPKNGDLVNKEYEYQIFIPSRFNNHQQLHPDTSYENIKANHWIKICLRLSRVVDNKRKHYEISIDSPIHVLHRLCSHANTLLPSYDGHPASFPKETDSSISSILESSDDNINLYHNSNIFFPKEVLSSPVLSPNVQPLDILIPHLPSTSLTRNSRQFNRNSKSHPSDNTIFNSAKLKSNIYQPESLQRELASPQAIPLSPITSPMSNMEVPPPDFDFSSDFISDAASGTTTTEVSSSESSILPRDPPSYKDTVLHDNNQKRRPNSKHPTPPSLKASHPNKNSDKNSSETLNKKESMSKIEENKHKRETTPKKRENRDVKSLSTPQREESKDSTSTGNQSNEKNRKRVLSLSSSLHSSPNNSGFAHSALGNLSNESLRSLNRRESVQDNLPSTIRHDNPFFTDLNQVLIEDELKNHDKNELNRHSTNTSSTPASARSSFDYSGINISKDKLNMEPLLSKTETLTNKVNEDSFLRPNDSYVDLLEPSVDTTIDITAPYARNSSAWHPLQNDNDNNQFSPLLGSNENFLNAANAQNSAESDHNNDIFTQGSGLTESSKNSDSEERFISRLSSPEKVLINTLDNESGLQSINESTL

[3] = target: T3, Ykr021w (S. cerevisiae, UniProt P36117 1-915)
T3 sequence (looked up): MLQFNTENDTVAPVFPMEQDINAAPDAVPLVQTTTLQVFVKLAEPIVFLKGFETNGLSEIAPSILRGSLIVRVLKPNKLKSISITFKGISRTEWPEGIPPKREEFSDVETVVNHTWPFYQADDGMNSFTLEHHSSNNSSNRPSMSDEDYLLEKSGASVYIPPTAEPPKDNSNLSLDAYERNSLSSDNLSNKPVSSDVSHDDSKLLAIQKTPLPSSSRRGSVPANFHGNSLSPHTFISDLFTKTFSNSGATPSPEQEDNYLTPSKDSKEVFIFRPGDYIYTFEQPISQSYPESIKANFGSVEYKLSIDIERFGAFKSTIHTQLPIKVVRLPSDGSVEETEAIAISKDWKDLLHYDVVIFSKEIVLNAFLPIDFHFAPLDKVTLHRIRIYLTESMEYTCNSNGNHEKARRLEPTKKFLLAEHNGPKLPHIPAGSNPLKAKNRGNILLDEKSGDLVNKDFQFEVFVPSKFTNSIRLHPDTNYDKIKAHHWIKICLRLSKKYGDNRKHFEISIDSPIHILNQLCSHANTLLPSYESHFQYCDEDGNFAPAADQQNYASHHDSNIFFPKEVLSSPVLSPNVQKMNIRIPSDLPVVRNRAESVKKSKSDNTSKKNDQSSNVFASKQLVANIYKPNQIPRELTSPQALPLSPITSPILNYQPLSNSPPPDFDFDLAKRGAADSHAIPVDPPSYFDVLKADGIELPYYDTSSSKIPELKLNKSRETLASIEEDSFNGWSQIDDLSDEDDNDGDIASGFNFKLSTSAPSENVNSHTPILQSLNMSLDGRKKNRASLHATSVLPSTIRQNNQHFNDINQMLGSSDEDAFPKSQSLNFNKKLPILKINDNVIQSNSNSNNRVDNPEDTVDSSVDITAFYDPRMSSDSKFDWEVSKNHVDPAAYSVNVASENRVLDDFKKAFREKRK

binding result [1]: binds
binding result [2]: binds
binding result [3]: binds
B1: Rsp5 (enzyme)
chain: not shown
modifications: labeled with AlexaFluor 647 (Microscale Protein Labeling kit)
